Measured values reported in the supplement of paper PMC11780869.

Tested on: Bacillus subtilis
Assay: cleaved RNA product abundance (RNA/gDNA barcode ratio) relative to median wild-type variant (ratio to wild type); higher = more accumulation of the downstream cleavage product
Conditions: cleavage site: cggR-gapA (positions -7 to +36 mutated)
Procedure, shortened: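 Sequencing of barcodes from gel-selected, reverse-transcribed cleaved RNA and from genomic DNA, with UMI collapsing, yielded a per-construct RNA:gDNA ratio. Scaled to the median construct with the unmutated site, this ratio is the cleaved product abundance. The barcoded reporters (truncated aprE or tetM mRNAs with mutagenized RNase Y cleavage-site windows) were integrated into the B. subtilis chromosome, and cultures grew in LB at 37°C from OD600 0.0003 to 0.3.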

[1] = experiment (reporter, strain, medium): exp 4a: truncated aprE reporter, strain BJT201 with 2% xylose (RNase J1 expressed)
[2] = experiment (reporter, strain, medium): exp 2b: truncated aprE reporter, strain BJT200

| Sequence | cleaved RNA product abundance [1] | cleaved RNA product abundance [2] | cleaved RNA product abundance (experiment (reporter, strain, medium): exp 6: tetM reporter, strain 168) |
| --- | --- | --- | --- |
| ACAGACGAAGGAGCCGCAAAGAAGTTATTAAGGAATGAATAATCCCTCAATATAAAGATCTCTCACTTATTTAAA | 0.0766 |  |  |
| ACAGACGAAGGAGCCGCAAAGAAGTTATTAAGGAATGAATAATCCCTCAATATAAATAACTCTCACTTATTTAAA | 0.21 |  |  |
| ACAGACGAAGGAGCCGCAAAGAAGTTATTAAGGAATGAATAATCCCTCAATATAAATACCTCTCACTTATTTAAA |  | 0.0997 |  |
| ACAGACGAAGGAGCCGCAAAGAAGTTATTAAGGAATGAATAATCCCTCAATATAAATAGCTCTCACTTATTTAAA | 0.095 | 0.108 |  |
| ACAGACGAAGGAGCCGCAAAGAAGTTATTAAGGAATGAATAATCCCTCAATATAAATATCTCTCACTTATTTAAA | 0.132 | 0.109 | 0.126 |
| ACAGACGAAGGAGCCGCAAAGAAGTTATTAAGGAATGAATAATCCCTCAATATAAATATTTCTCACTTATTTAAA | 0.136 |  |  |
| ACAGACGAAGGAGCCGCAAAGAAGTTATTAAGGAATGAATAATCCCTCAATATAAATTTCTCTCACTTATTTAAA | 0.142 | 0.114 |  |
| ACAGACGAAGGAGCCGCAAAGAAGTTATTAAGGAATGAATAATCCCTCAATATAAGTATCTCTCACTTATTTAAA | 0.0312 |  |  |
| ACAGACGAAGGAGCCGCAAAGAAGTTATTAAGGAATGAATAATCCCTCAATATAATTATCTCTCACTTATTTAAA | 0.117 |  |  |
| ACAGACGAAGGAGCCGCAAAGAAGTTATTAAGGAATGAATAATCCCTCAATATACATATCTCTCACTTATTTAAA | 0.118 |  |  |
| ACAGACGAAGGAGCCGCAAAGAAGTTATTAAGGAATGAATAATCCCTCAATATAGATATCTCTCACTTATTTAAA | 0.101 |  |  |
| ACAGACGAAGGAGCCGCAAAGAAGTTATTAAGGAATGAATAATCCCTCAATATATATATCTCTCACTTATTTAAA | 0.149 | 0.0862 |  |
| ACAGACGAAGGAGCCGCAAAGAAGTTATTAAGGAATGAATAATCCCTCAATATCAATATCTCTCACTTATTTAAA | 0.0389 |  |  |
| ACAGACGAAGGAGCCGCAAAGAAGTTATTAAGGAATGAATAATCCCTCAATCTAAATATCTCTCACTTATTTAAA | 0.0695 |  |  |
| ACAGACGAAGGAGCCGCAAAGAAGTTATTAAGGAATGAATAATCCCTCAATTTAAATATCTCTCACTTATTTAAA | 0.0591 | 0.0901 |  |
| ACAGACGAAGGAGCCGCAAAGAAGTTATTAAGGAATGAATAATCCCTCACTATAAATATCTCTCACTTATTTAAA |  | 0.0964 |  |
| ACAGACGAAGGAGCCGCAAAGAAGTTATTAAGGAATGAATAATCCCTCAGTATAAATATCTCTCACTTATTTAAA | 0.15 |  |  |
| ACAGACGAAGGAGCCGCAAAGAAGTTATTAAGGAATGAATAATCCCTCATTATAAATATCTCTCACTTATTTAAA | 0.0579 | 0.102 |  |
| ACAGACGAAGGAGCCGCAAAGAAGTTATTAAGGAATGAATAATCCCTCCATATAAATATCTCTCACTTATTTAAA | 0.0857 |  |  |
| ACAGACGAAGGAGCCGCAAAGAAGTTATTAAGGAATGAATAATCCCTCTATATAAATATCTCTCACTTATTTAAA | 0.119 | 0.12 |  |
| ACAGACGAAGGAGCCGCAAAGAAGTTATTAAGGAATGAATAATCCCTGAATATAAATATCTCTCACTTATTTAAA | 0.0984 |  |  |
| ACAGACGAAGGAGCCGCAAAGAAGTTATTAAGGAATGAATAATCCCTTAATATAAATATCTCTCACTTATTTAAA | 0.588 | 0.68 |  |
| ACAGACGAAGGAGCCGCAAAGAAGTTATTAAGGAATGAATAATCCGTCAATATAAATATCTCTCACTTATTTAAA | 0.0653 | 0.0733 |  |
| ACAGACGAAGGAGCCGCAAAGAAGTTATTAAGGAATGAATAATCCTTCAATATAAATATCTCTCACTTATTTAAA | 0.265 | 0.148 |  |
| ACAGACGAAGGAGCCGCAAAGAAGTTATTAAGGAATGAATAATCGCTCAATATAAATATCTCTCACTTATTTAAA | 0.0645 |  |  |
| ACAGACGAAGGAGCCGCAAAGAAGTTATTAAGGAATGAATAATCTCTCAATATAAATATCTCTCACTTATTTAAA | 0.155 | 0.0991 |  |

| Sequence | cleaved RNA product abundance [1] | cleaved RNA product abundance [2] | cleaved RNA product abundance (experiment (reporter, strain, medium): exp 6: tetM reporter, strain 168) |
| --- | --- | --- | --- |
| ACAGACGAAGGAGCCGCAAAGAAGTTATTAAGGAATGAATAATGCCTCAATATAAATATCTCTCACTTATTTAAA | 0.0706 |  |  |
| ACAGACGAAGGAGCCGCAAAGAAGTTATTAAGGAATGAATAATTCCTCAATATAAATATCTCTCACTTATTTAAA | 0.872 | 0.756 |  |
| ACAGACGAAGGAGCCGCAAAGAAGTTATTAAGGAATGAATACTCCCTCAATATAAATATCTCTCACTTATTTAAA | 0.106 | 0.116 |  |
| ACAGACGAAGGAGCCGCAAAGAAGTTATTAAGGAATGAATAGTCCCTCAATATAAATATCTCTCACTTATTTAAA | 0.114 | 0.101 |  |
| ACAGACGAAGGAGCCGCAAAGAAGTTATTAAGGAATGAATATTCCCTCAATATAAATATCTCTCACTTATTTAAA | 0.279 | 0.178 |  |
| ACAGACGAAGGAGCCGCAAAGAAGTTATTAAGGAATGAATCATCCCTCAATATAAATATCTCTCACTTATTTAAA | 0.151 |  |  |
| ACAGACGAAGGAGCCGCAAAGAAGTTATTAAGGAATGAATGATCCCTCAATATAAATATCTCTCACTTATTTAAA | 0.0629 |  |  |
| ACAGACGAAGGAGCCGCAAAGAAGTTATTAAGGAATGAATTATCCCTCAATATAAATATCTCTCACTTATTTAAA | 0.0807 |  |  |
| ACAGACGAAGGAGCCGCAAAGAAGTTATTAAGGAATGACTAATCCCTCAATATAAATATCTCTCACTTATTTAAA | 0.103 |  |  |
| ACAGACGAAGGAGCCGCAAAGAAGTTATTAAGGAATGAGTAATCCCTCAATATAAATATCTCTCACTTATTTAAA | 0.131 | 0.119 |  |
| ACAGACGAAGGAGCCGCAAAGAAGTTATTAAGGAATGATTAATCCCTCAATATAAATATCTCTCACTTATTTAAA | 0.11 | 0.115 |  |
| ACAGACGAAGGAGCCGCAAAGAAGTTATTAAGGAATGTATAATCCCTCAATATAAATATCTCTCACTTATTTAAA | 0.169 | 0.104 |  |
| ACAGACGAAGGAGCCGCAAAGAAGTTATTAAGGAATTAATAATCCCTCAATATAAATATCTCTCACTTATTTAAA | 0.137 | 0.103 |  |
| ACAGACGAAGGAGCCGCAAAGAAGTTATTAAGGAATTATTAATCCCTCAATATAAATATCTCTCACTTATTTAAA | 0.203 |  |  |
| ACAGACGAAGGAGCCGCAAAGAAGTTATTAAGGACTGAATAATCCCTCAATATAAATATCTCTCACTTATTTAAA | 0.0888 | 0.0791 |  |
| ACAGACGAAGGAGCCGCAAAGAAGTTATTAAGGAGTGAATAATCCCTCAATATAAATATCTCTCACTTATTTAAA | 0.171 |  |  |
| ACAGACGAAGGAGCCGCAAAGAAGTTATTAAGGATGAATAATCCCTCAATATAAATATCTCTCACTTATTTAAAG | 0.294 |  |  |
| ACAGACGAAGGAGCCGCAAAGAAGTTATTAAGGATTGAATAATCCCTCAATATAAATATCTCTCACTTATTTAAA | 0.301 | 0.217 |  |
| ACAGACGAAGGAGCCGCAAAGAAGTTATTAAGGCAAGAATAATCCCTCAATATAAATATCTCTCACTTATTTAAA | 0.115 | 0.104 |  |
| ACAGACGAAGGAGCCGCAAAGAAGTTATTAAGGCAGGAATAATCCCTCAATATAAATATCTCTCACTTATTTAAA | 0.167 | 0.102 |  |
| ACAGACGAAGGAGCCGCAAAGAAGTTATTAAGGCATAAATAATCCCTCAATATAAATATCTCTCACTTATTTAAA | 0.107 | 0.0865 |  |
| ACAGACGAAGGAGCCGCAAAGAAGTTATTAAGGCATGAAAAATCCCTCAATATAAATATCTCTCACTTATTTAAA | 0.0945 | 0.0832 |  |
| ACAGACGAAGGAGCCGCAAAGAAGTTATTAAGGCATGAACAATCCCTCAATATAAATATCTCTCACTTATTTAAA | 0.0684 |  |  |
| ACAGACGAAGGAGCCGCAAAGAAGTTATTAAGGCATGAATAAACCCTCAATATAAATATCTCTCACTTATTTAAA | 0.136 |  |  |
| ACAGACGAAGGAGCCGCAAAGAAGTTATTAAGGCATGAATAATACCTCAATATAAATATCTCTCACTTATTTAAA | 0.153 | 0.0988 |  |
